Test results from PMC4561382, “Aven recognition of RNA G-quadruplexes regulates translation of the mixed lineage leukemia protooncogenes”.

How the values were obtained:
[1] = biological target: T1, Aven DiRGG peptide (human, UniProt Q9NQS1); assay: fluorescence plate binding (immobilized peptide); K+-folded RNA; joint range (173-200 in author response); RNA folded in 10 mM Tris-acetate pH 7.7, 200 mM K-acetate, 5 mM Mg-acetate (75 C 10 min, 21 C 5 min); peptide assay 1 h at room temperature, washes in this buffer; pull-down 100 nM RNA in cell lysate with 2 mg/ml heparin, 1 h on ice, beads 30 min at 4 C; details: tags: N-terminal biotin; G4
T1 chain: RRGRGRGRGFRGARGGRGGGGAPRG

[2] = biological target: T2, Aven TriRG peptide (human, UniProt Q9NQS1); assay: fluorescence plate binding (immobilized peptide); K+-folded RNA; range given jointly for TriRG and TriRGme; RNA folded in 10 mM Tris-acetate pH 7.7, 200 mM K-acetate, 5 mM Mg-acetate (75 C 10 min, 21 C 5 min); peptide assay 1 h at room temperature, washes in this buffer; pull-down 100 nM RNA in cell lysate with 2 mg/ml heparin, 1 h on ice, beads 30 min at 4 C; details: tags: N-terminal biotin; G4
T2 chain: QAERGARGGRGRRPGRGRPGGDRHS

GCUGCGGUGUGGAAGGAGUGGUCGGGUUGCGCAGCG (structured_RNA) [sc1 G4 (fluorescein)]
Kd [1]: ~187 nM
Kd [2]: ~84.8 nM
